From PMC3627919, “Novel Split-Luciferase-Based Genetically Encoded Biosensors for Noninvasive Visualization of Rho GTPases” (PLoS ONE, 2013)

Molecular target: T1, Nfluc416-WASP (human, UniProt P42768 220-288)
T1 sequence (looked up): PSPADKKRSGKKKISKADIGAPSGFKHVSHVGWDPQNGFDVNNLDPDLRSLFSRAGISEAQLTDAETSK
Assay: split reporter (BiFC, NanoBiT); bimolecular luminescence complementation (split firefly luciferase) in living HEK 293 cells, 24 h after transient cotransfection of the pair (50 ng/well) with pRL-tk; D-luciferin 150 ug/ml; IVIS CCD camera; ratio FL at 600 nm to RL at 500 nm; wild-type pairs also with co-expressed GEF or GAP catalytic domains
Settings: partners not purified

luminescence signal, fold of the active mutant over the wild type: 2.77 fold | reconstituted luminescence (FL/RL), fold over CDC42 F37A: 14.3 fold | reconstituted luminescence (FL/RL), fold over CDC42 T17N: 5.6 fold | reconstituted luminescence (FL/RL), fold over CDC42 WT: 2.7 fold
B1: Cfluc398-CDC42(G12V) (natural protein)
chain: not shown
